Assay results reported in the supplement of paper PMC6757056.
± gives the standard deviation of the averaged measurements.

B1: library; a variant is named by its letters at N, in order (parent)
chain: GCUGUCACCGGUGCUUGGUACGUUAUAUUCAGCCGGUCUGAUGAGUCUNNNNNNAGACGAAACAGC

Columns and labels:
(6R,S)-folinic acid [1] = variants of: B1; experiment: normalized RNA/DNA level without ligand (relative to sTRSVctl = 100) (log10 (% of sTRSVctl)); HEK293T overexpressing SLC46A1; higher = less ribozyme self-cleavage, higher mRNA level; settings: without (6R,S)-folinic acid; ligand present: no
In short: (§1)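 Library plasmids carrying ribozyme switches linked to mCherry, or to eGFP in some ligand experiments, were transfected into HEK293T at 4 µg per 6-well well, with any ligand added 1 h earlier. Seventy-two hours on, total RNA was extracted with EDTA and reverse-transcribed, amplified, barcoded and sequenced. RNA level was RNA over DNA reads normalized to a spiked-in non-cleaving sequence or to the top sequences, then scaled and log-transformed. The top set was 25 sequences, the transform was ×100 and log10, and sequences needed ≥100 DNA reads.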

(6R,S)-folinic acid [2] = variants of: B1; experiment: normalized RNA/DNA level with ligand (relative to sTRSVctl = 100) (log10 (% of sTRSVctl)); HEK293T overexpressing SLC46A1; ligand concentration (+) RNA-Seq: 6 mM; higher = less ribozyme self-cleavage, higher mRNA level; settings: with (6R,S)-folinic acid; ligand present: yes
In short: as §1

Variant	normalized RNA/DNA level without ligand (log10) ((6R,S)-folinic acid [1])	normalized RNA/DNA level with ligand (log10) ((6R,S)-folinic acid [2])
AUUGGC	2.011 ± 0.012	2.05 ± 0.012
AUCUGU	2.004 ± 0.0032	2.06 ± 0.056
GAGCUC	2.07 ± 0.011	2.05 ± 0.041
CUUCGU	2.053 ± 0.0097	2.04 ± 0.048
AGCAUG	1.957 ± 0.004	2.03 ± 0.018
CUACAA	1.98 ± 0.0052	1.99 ± 0.024
CAUUGA	2.019 ± 0.0027	2.01 ± 0.055
CAUUGG	1.955 ± 0.011	2.01 ± 0.026
AGAUAC	1.983 ± 0.0026	2.022 ± 0.02
CUACGG	2.102 ± 0.0025	2.092 ± 0.0045
GCCAAG	2.0227 ± 0.0017	2.04 ± 0.038
AUGCCU	2.011 ± 0.0046	2.015 ± 0.0068
GCUAGC	2.035 ± 0.017	2.016 ± 0.012
GGUCCC	2.043 ± 0.016	2.01 ± 0.027
CGUCCC	2.003 ± 0.0083	1.95 ± 0.037
UAGCGU	1.921 ± 0.0035	1.99 ± 0.048
AAAAUC	2.051 ± 0.0098	2.01 ± 0.023
GUCUCU	2.0436 ± 0.00093	2.03 ± 0.044
GAUGCC	2.014 ± 0.0064	2.023 ± 0.013
CCCGGG	2.019 ± 0.0077	1.987 ± 0.0062
CCCGGC	2.08 ± 0.037	2.02 ± 0.065
CACAUG	2.02 ± 0.01	2.018 ± 0.017
AUCCUG	1.992 ± 0.0066	2.02 ± 0.042

Variant	normalized RNA/DNA level without ligand (log10) ((6R,S)-folinic acid [1])	normalized RNA/DNA level with ligand (log10) ((6R,S)-folinic acid [2])
AUCCUC	2.1 ± 0.022	2.02 ± 0.025
AAGUAC	2.02 ± 0.024	2.03 ± 0.039
AGACUU	2.021 ± 0.0033	1.99 ± 0.024
AACUCC	2.06 ± 0.031	2.01 ± 0.032
UAGUCC	2.0087 ± 0.0016	2.03 ± 0.057
AGAAGG	1.931 ± 0.019	2.01 ± 0.037
GGUCUC	2.0526 ± 0.0017	2.06 ± 0.026
AACUAA	1.97 ± 0.023	1.96 ± 0.026
UGCCAG	1.812 ± 0.0093	1.9581 ± 0.00078
ACCAAU	1.955 ± 0.01	2.012 ± 0.0037
AUGACC	2.046 ± 0.0045	2.024 ± 0.014
CGGUGA	2.029 ± 0.014	2.04 ± 0.043
ACCUUU	2.071 ± 0.0086	2.02 ± 0.021
GUGCUC	2.05 ± 0.032	2.01 ± 0.045
UUUCUU	2.043 ± 0.0064	2.02 ± 0.021
UUUCUC	2.118 ± 0.0058	2.062 ± 0.014
CUACCC	2.045 ± 0.011	2 ± 0.047
CGAGAU	1.957 ± 0.011	1.99 ± 0.025
CGUGUG	1.972 ± 0.015	1.99 ± 0.032
CGACGA	2.001 ± 0.011	2 ± 0.05
ACUCGA	1.994 ± 0.019	2.03 ± 0.025
ACUCGC	2.034 ± 0.012	2.01 ± 0.041
CCGGAG	1.931 ± 0.0037	2.024 ± 0.011

Variant	normalized RNA/DNA level without ligand (log10) ((6R,S)-folinic acid [1])	normalized RNA/DNA level with ligand (log10) ((6R,S)-folinic acid [2])
AUGUAA	1.938 ± 0.011	2 ± 0.023
UUCGCG	1.91 ± 0.029	1.968 ± 0.0034
CAUAGC	1.9903 ± 0.00018	1.98 ± 0.047
CUUAGC	2.008 ± 0.019	2.01 ± 0.08
GGUAUC	2.011 ± 0.008	2.0104 ± 0.001
UCUGCU	2.069 ± 0.0056	2.07 ± 0.0045
CCGUCA	2.04 ± 0.031	2.05 ± 0.038
CCGUCG	2.02 ± 0.034	2.021 ± 0.015
ACUACG	1.938 ± 0.0043	2.006 ± 0.02
CUCAAC	2.07 ± 0.029	2.045 ± 0.0073
CUCAAG	1.96 ± 0.024	2.01 ± 0.023
UGGACU	2.006 ± 0.0056	2.01 ± 0.023
CUAACG	2.02 ± 0.018	1.99 ± 0.053
GGUGGG	2.034 ± 0.014	2.059 ± 0.017
AGAGGA	1.929 ± 0.014	2.02 ± 0.039
GCAUCG	2.01 ± 0.029	2.061 ± 0.011
GCUGUG	2.03 ± 0.028	2.04 ± 0.055
GUAAUU	2.013 ± 0.0027	1.99 ± 0.024
CCCACC	2.022 ± 0.0044	1.99 ± 0.021
CCGUAA	1.981 ± 0.016	1.98 ± 0.032
UCAUCC	2.07 ± 0.051	2.05 ± 0.041
GCCCCG	2.041 ± 0.012	1.99 ± 0.034
GCCCCU	2.0548 ± 0.00021	2.024 ± 0.011

Variant	normalized RNA/DNA level without ligand (log10) ((6R,S)-folinic acid [1])	normalized RNA/DNA level with ligand (log10) ((6R,S)-folinic acid [2])
UAUCGU	1.947 ± 0.0084	2.01 ± 0.038
UCCUCC	2.089 ± 0.016	2.02 ± 0.046
CAUUCU	2.022 ± 0.0089	2.01 ± 0.056
CCAAGC	2.098 ± 0.0093	2.0623 ± 0.001
CACUAA	1.961 ± 0.01	2.0172 ± 0.0006
GGUGCG	2.0178 ± 0.0012	2.05 ± 0.035
UCGUCA	2.045 ± 0.013	2.03 ± 0.045
CUGAUA	1.9701 ± 0.00086	2.02 ± 0.048
CAAAUC	2.05 ± 0.026	2.02 ± 0.047
UGCGGC	1.998 ± 0.006	1.98 ± 0.045
AGAGUG	1.71 ± 0.035	1.98 ± 0.039
AAGGGG	1.902 ± 0.011	2.038 ± 0.011
ACAUUA	2.006 ± 0.017	2.02 ± 0.034
GACUCG	2.0319 ± 0.0013	2.05 ± 0.032
UGUCGC	1.966 ± 0.0063	2.024 ± 0.0019
CUCUUG	2.04 ± 0.021	2.03 ± 0.028
GUCGGC	2.004 ± 0.0028	2.03 ± 0.025
UAUUCG	1.735 ± 0.0046	1.94 ± 0.063
UCCCUC	2.07 ± 0.041	2.053 ± 0.0051
CCGCCA	2.0675 ± 0.0011	2.04 ± 0.035
GCGUCC	2.01 ± 0.0034	1.997 ± 0.0077
GGAUAC	1.988 ± 0.011	2.034 ± 0.013
AGGAUG	1.92 ± 0.031	2.037 ± 0.019

Variant	normalized RNA/DNA level without ligand (log10) ((6R,S)-folinic acid [1])	normalized RNA/DNA level with ligand (log10) ((6R,S)-folinic acid [2])
ACAAGU	2.022 ± 0.0081	2.02 ± 0.028
UUAAUU	2.011 ± 0.0048	2.01 ± 0.042
GGCACG	2.047 ± 0.014	2.03 ± 0.038
CUUGAC	1.998 ± 0.0057	2.033 ± 0.0045
CAACCC	2.073 ± 0.0092	2.03 ± 0.079
CAACCG	2.0386 ± 0.00089	2.04 ± 0.02
GACGCA	2.005 ± 0.0025	2.01 ± 0.045
GAGACA	1.976 ± 0.0079	2.01 ± 0.031
AAUCAC	2.008 ± 0.0074	2 ± 0.024
CCUCAG	1.94 ± 0.024	1.96 ± 0.0042
GGGGCA	2.054 ± 0.0064	2.02 ± 0.025
UCGGUA	1.93 ± 0.029	1.985 ± 0.015
UUGGAC	1.972 ± 0.015	1.98 ± 0.032
CCAUCG	2.012 ± 0.01	2.017 ± 0.014
UCGCCG	2.016 ± 0.0047	2.05 ± 0.032
UCGCCA	2.027 ± 0.0078	2.03 ± 0.023
GCUUGA	1.999 ± 0.0031	2.024 ± 0.018
AUUCAA	1.9988 ± 0.0016	2.01 ± 0.029
UCUGAC	2.011 ± 0.0043	2.01 ± 0.052
AAUGUA	1.9489 ± 1.8e-05	2.01 ± 0.04
CACAAU	1.954 ± 0.018	1.99 ± 0.057
AGAGCA	1.977 ± 0.0046	2.01 ± 0.051
UUGACA	1.956 ± 0.018	1.98 ± 0.021
